Assay results published in the DeepSol protein solubility set.

Assay: soluble on expression in E. coli; label from the status in PepcDB or PDB records

Soluble on expression in E. coli, not soluble:
MGSDKIHHHHHHMSEAKMAESDGLRVLIDEPFYQPVANEVRVFLAAWDRRLPVMLKGPTGCGKTRFLEHMAWRLKRPLVTVACHEDLTSSDLIGRFLIEGNETVWQDGPLTRAVREGAICYLDEIVEARTDTTVVIHPLTDHRRHLPIEKLGIEITAHRDFMLVISYNPGYQTVLKDLKPSTKQRFVGMNFNYPPADVETCIVMKEAGVDEGRAKALVAAAGKARNLKEQGLQEVTSTRALIYAGALMVAGLDALEACVVAIIHPQTDDPELAEALLEIFRTFFPEQG
MGSDKIHHHHHHMSEEIELKFIVHPDSVESLLTQLAEWESDYSQYEHMRAQRLSNIYYETADNYLRRNGIGLRIRGENERYEMTAKTAGKVIGGLHQHPEYNVALETAELDLSLFPAEIWPEDCDVKTLQPSLNPLFSTDFTREKWVFTYYQSVIEVALDRGEIRAGDLSEPLCELEMELKVGQTTHLLALAKEIAEFGGMRQGSLSKAARGYHLAKGNPVRECLPLNRLVVDSKTNIDQAIRAALELALSHWQYHEELWVRGDSSAREALPQASALMREMLVLVGGVVLRRVTTLFRSALSTLENRLQGSGGSEICYSTDYLQSKLVLTSWLVESGWRDYMDNKDRIKLQGSFKRFADIMLSRSTAELKSAFSSKLTAEQYEQQIPRLQRNLYAFLLLSGAYPADQVEAYVEHWQTLLQEIEHLAVDQAPSVYLEAYRKEVLTLPPFWLHSGGPSQ
MGSDKIHHHHHHMSEILVLGGGMVGISTALELQARGHAVTVVDRKAPGQETSYGNAGLIQAEAAEPYAMPRALPEILGILSGRSNDVIWSLRGVLSQLPALWQYYRYSHPHRHLALSQPNAHLIRTACADHDRWITAAAAQDLIAQDGYLSVFQDAAMFDSLASDLERLRQSYGVEATAMSGPQLCKMEPLYQRPPVGGIHWRDVWSCAAPGELVARYAALFQSRGGEICTGDASTLRPEGSAWALMSEAGRLHGEHAVIALGPWTPPILAQLGYRVRMIMKHGAHRMYPTGPKLRRPVHDAQHGIVLSSMKGGLRMTCGVALEASGRVPDARQLDRGAKGLAAYMDLGTAEGGPIWHGTRPFLPDMLPMVGAAPRHDRLWFHFGHGHQGFTLGPTTARHLGALIDGGDSAGIAALLPQNRPAVLS
MGSDKIHHHHHHMSEKNQQSADLMARQYFLHLGAHRTGSSSFQLCLHENRAALANAGYGVAFPARDGIRAGQLALRLPQPRHDAEAETRMAETARQHLTQDIAPAPDQKVLLSEENILGSMSHFQQALFYPASAKRLRALRQAMEGPAAAVLLVVRDYGPFFRSCIRKRMEETIVTDFEGAVSAYLAMDRGWLEVLREVRDILEPAKLIVARHEDRPKRVDLLRELAPDLAQVALMQPSTSLNISATDRALSALQARYATGEKLSRKAWRATLAEWRDDATPMGLTEFTPRELRAFSMRYERDLSDIAKEPGLTLI
MGSDKIHHHHHHMSEKTLYQKLQNIHKKVPYIQKSQQASQYSYAGSSDVLGTIHGLMDEEKLILIPQITNKNTETSQNRKGSTVIFTELMMTMTWVNSDNPDEKLECQWYAQGIDTAGEKGVGKALTYGEKYFLLKFFNVATDDLDPDAFQENVKAQKAPELINDEQKKTLKELFNSMASVTKTPIEKVSKAYLKKVNSDSIEKLQEDTAIGLIELVTNQLNKQTEKAGK
MGSDKIHHHHHHMSEQQCTELKVLDTVPFGQVSGDAQFYALRLEKPRWKSWKPGQFVMIRPQGWALDMLWARPFSICRVSSRDLVLFFQAVGRGTRRLADLKAGDTVVVWGPLGNSFAVEPETPTLMLAGGIGIAPFIGYAHTHPKPWNLWMEFGHRMPLGCYPFESINEKIMADNHQEECPDDLLRFIERLEKRIAEYAEQDGLVLACGPTPFLRTVQRFALQYGARCQLSLETRMACGVGGCLGCVTSTTEKHHLHHTQAGKAQVCNNGPVFWADQVDLDKA
MGSDKIHHHHHHMSETYPILIHLGEKLNRVIVGQSQLIQQLLVGLLSGGHIILEGVPGTGKTLLVKVLARLIQADFHRVQLTPDVLPSDITGTNIFDLNNRNFTLKKGPVFTEVLLADEINRTPPKTQAALLEAMEEMQVTLDGESLPLPDLFWVIATQNPLEFEGTYPLPEAQLDRFLFKLVVDYPDQTAEKQMLLNRQAGFAARRSDINSLQPIATVTDILEARQAVKAVKVSESIIDYLLALVRTSRQYPDLALGASPRAAGAWLQTSQAVAWLEGRDFVTPDDIKAVASPLLRHRLILKPEAMLDGLQIDAVIAAVVNQVAVPR
MGSDKIHHHHHHMSFFDTLSGLSREQLRMALYSTTPAQVETAIEGEQGNLGHLLALLSPAAEEYLEPMAQRAAALTRQRFGHNIGLYLPLYLSNLCANECDYCGFTMSNKLKRKVLSHDELAAEMAVIKPQGFDSILLVSGEHETKVGIEYFADILPLVKAEFSHVAMEVQPLSREHYEILVEKGLDAVMLYQETYDPETYRRHHLRGNKQDYGYRLASPERIAQAGVDKIGLGVLLGLDDWRMDALLMGYHLDYLERRFWRSRYSISLPRLRPCVGGITPKVQLTDKGLVQLICAFRLFNEQLEISLSTRETPSLRDNLLGLGITQMSAGSRTEPGGYVNPAAQLDQFEISDERSAAEVASVLRSRGFTPVWKDWEAGWIGAG
MGSDKIHHHHHHMSGPQGRLAIIAGSGMLPVYVAEAARAAGEDPFILPLKNEADQRWDGFQSAVIGVGDMAGLSSLIKRHGIKRVVMSGGVKKRPNFKEIHVNLRFLVKLPFAVKTLLSGGDDAVLKMVIQLIESQGCRVVGAHEIAPQLLAELGPLGSSRPTDDDRRDIAAAAKAADALGRLDVGQGAVSVGGRIVALEGVEGTDRMLQRVAELRSEGRISSRRSGVLVKLCKPQQDIRADLPTIGQSTIENAARAGLSGIAVQAGRALLLQRQETLRQADAAGIFISGIELAPEGEAWLS
MGSDKIHHHHHHMSHTEVKLKIPFGNKLLDAVCLVPNKSLTYGIILTHGASGDMNLPHLMSLASHLASHGFFCLRFTCKGLNIVHRIKAYKSVLNYLKTSGEYKLAGVFLGGRSMGSRAAASVMCHIEPDDGDDFVRGLICISYPLHHPKQQHKLRDEDLFRLKEPVLFVSGSADEMCEKNLLEKVAQKMQAPHKIHWIEKANHSMAVKGRSTNDVFKEINTQILFWIQEITEMDKKCH
MGSDKIHHHHHHMSHTITVIGLGAGDLEQLPLGVYRLILNQDHLYVRTKDHPVIEELIGEGHSFTFFDSIYEQHETFEAVYDAIVAELLEAAKSKEILYAVPGHPLVAERTVQLLLEAEREGRVTVKILGGQSFLDPMFSALKIDPVEGCQVLDGTMLSRDEVHVTQHIVICQVYDQMIASHVKLTLMELLPDDYEVTVATAVGTKNEKLETVPLYELDRVTTISNLTAVYVPPVEDEVILYQDFRTLRQIIATLRGPDGCPWDKKQTHQSLKKYLLEEAYEVLEAIDEENEDHLVEELGDLLLQVLLHAQIGEDDGWFQIEDVIRSISEKMIRRHPHVFGERQVEDAEDVVETWDEIKKAEKGEDQASTSILGKIPKGLPSLMLAFELQKKAAKVGFDWAEVEPMWAKLDEEMHEFKEEIQAGHSQEMAKEFGDVLFVLVNIGRFYNIYAEEALHRTNEKFKRRFQSIEQAITAKGDTLEESSLEEMDVLWNQAKESESQGE
MGSDKIHHHHHHMSIELIDLHPAPADLKQLVQSGFKCQPRQLPAWVLYDAKGSRLFAQICEQPEYGLTRTEIKLLEENAPAIAKAVGDGVIVEFGIGNARKVSPLLNAIRPSTFVALDISQAALKDSLTRLASTYPMVSILGICCDHSSMQALPPHPRLEGVRCIGFFPGSSLGNFTPKEAVAVLRRFRKLLGGGPLLLGLDQPRDPIQLEAAYNDEAGISAAFARNLLHRLNRELEADFRPDQFSYRARWQEEFHRIEMALVSRCSQTIVIDNSTWSFSAGEPLITEYSVKYNPQEAARLAEKAGWRINQRWHDSADSLSLHLLEPSD
MGSDKIHHHHHHMSIIMERQRGNQLLRIISEYMTNLKEKGQKLAKDNTMENLVNFTPRYNLIKSYLDDVERALDRSGLCYVKITFITLSKLLTGWSPIYFITEVPLAWDMILDTPYIAGSEIKGIVKNYFKEVTSNDKVESCLYGDEGKMGKVIFFNAYPIDGKNVLTYDIITPHYNGAKDEYNVKPIPIKFLAINKGITFKTYLAFDNKELNECGKDSLYLLLKTMIFSMRIGWGRKVTRGYGSLDIKEMDVKCHGE
MGSDKIHHHHHHMSIQTPIRGLRSFCVASKCLSFKHAAAQLFLTPSAVSHQIKQLEEQLGFMLFKRNTRSIELTSSGKQFYQSIQPIIHQLESTISEFTHNQQNHTIVISLPEFFASELFIPRLSEWSEKNPSINLQLETVKAGSEPSQIADLSIVLANGKPNASIVQELFPIRYAAACNKKLYKKLKNSGFKALKNTPLILHRSRPWSWHQWAENLGVNDFDPKQIIQFDSMFGVARAAQQGMGIALVPLPMSKTWFSEQLLVKLFDEELNTNDRYYLIQHENMESKVELTLFANWVKETFMTDYL
MGSDKIHHHHHHMSISEQCVIEIDKYIDYFKKNTSQPNILAKLFKTDSSYYVYDTGTNKVLTCGEYEYSILGKIIDNKFDEISRINDDADKSGFYEALENVRQAIEKEDILRGGKEWKFVSKGHFEELDKKLNYELDQITLELTEKCNLRCRYCIYNESYEHKRNFGNKDMPIEIAEKAIDYANLHSGKEKGVGVTFYGGEPLVNFKLLKHSIEYSRKVIKDKKLTFSLTSNLTLMTPEIATYLASIENLTILCSIDGPEEIHDSYRKDINGNGTFKRAIRGLKYLIEAFGDKANKAVMMNMVFTPPYSIEKVNKIETFINSLDWLPKGLRISMTYPSTGSVDDTPPKGCEKNYGMELIQWSESKYKSELKSDGKIDMFNEEFVVHPILRIHGRRISAKSESGYPVNGCCIPGSRKLYVTVDGNFQICERINGSPIIGNVFNGIDENKIKNEVIDEFINKSIKDCSRCWAARLCNVCYSHCYTDGKLDMKEKKRYCIRSRERALRSLVFYHKCAEINPEKLKYLNKIEVS
MGSDKIHHHHHHMSIVGNVENLINGVGELWNKYVKHEFILKMRDGSLPLDIFRYYLIQDGKYVEDMLRALLIASSKGPIDKVTKILNLVFSSRDKGLETHGKLYSKLDISRDVIVKTGYNLINYAYTRHLYYYANLDWNKFLVAWTPCMFGYSIVGDYVIDSPNEVYKTWASFYASTEYKKRIEAILYALDEVSITEDLLNIFINSVRFEIGFWDASLRKDPTVY
MGSDKIHHHHHHMSIYRKIDRNKIQFDFIVHKTGKNFFEDEILKLGGRIYRLPNKRKHPFKYKQEFLNVIKNYKIIHVHSVYAFTYYEVKWARQCQKSVILHSHNSDAKLLRKIIHYLFKHLQNHYVSVRLSPSKQAAKWMFNEGHDKVVYLYNGFDTTKFQFDMNSRIEIREQLGLANNDYIIGCVGRLDWQKDPIYLLRLFEKLKANDNAYKLIFIGDGSYRQTLERETHQKGLVNDVIFTGSVSNVPEYLSALDIFVLPTRYEGLGISLIEAQINGLPVFTNKDVPKEAVINQNMYLLDKGDSELWVDAINKELNVINLKKRKVNLSDFNQYNIETVVKKLQNIYLQLLS
MGSDKIHHHHHHMSKENIFDALKSGKIDYVRVEFVDILGNTKGRSLRRAEFENVINDNKGVDYPESLALMDYKDRPIKSRYEDIIAIPDLNTFVAIPYLERTARVLSFLAQPDGLPYPYCSRSILNKAIEKLKEAGYTLQVSFEPTFYLLNSALNPADYSKAFSLEGLLEQQNFLKLLIKYLEEIDIKVETINKHYGPGQYEVKLSQKPVLEAADSLISSREVIRDTAKMNNVIATFMPKPFKDYPSSSMDITLSLQTVDGKDIMYDPNDSKGIGLSKIAYNFISGILEHLPSILSIAAPTVNSYKRFKEVVTPNMPGIGSERHYIVRLPSYYKDTHQVEFRLADPLANPYILLASMIYAGLDGIERNLMANVNEYYGTLPQTLKESLSRLENDTYMKYNLGQDLISIYINIKNIEIEEYESQITEWERDYYLKAGW
